Measured values as given in article PMC8605023 (2021).

What was measured:
Experiment in all cases: FP
[1] = biological target: SARS-CoV NSP14 peptide with the YxxL motif, synthetic (SARS-CoV, UniProt P0C6X7)
[2] = biological target: MERS-CoV NSP14 peptide with the YxxL motif, synthetic (MERS-CoV, UniProt K9N7C7)
[3] = biological target: SARS-CoV-2 NSP14 peptide with the YxxL motif, synthetic (SARS-CoV-2, UniProt P0DTD1)
NTF2 domain of G3BP2 = biological target: T1, NTF2 domain of G3BP2 (human, UniProt Q9UN86 11-133)
T1 chain: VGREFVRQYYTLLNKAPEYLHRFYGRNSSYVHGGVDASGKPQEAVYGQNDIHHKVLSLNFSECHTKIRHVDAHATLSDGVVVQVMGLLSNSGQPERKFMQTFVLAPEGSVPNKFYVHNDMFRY

NTF2 domain of G3BP1 = NTF2 domain of G3BP1 (human, UniProt Q13283 11-133)
SARS-CoV NSP3 2019-2038 = biological target: SARS-CoV NSP3 2019-2038
SARS-CoV-2 E 1-16 = biological target: SARS-CoV-2 E 1-16
[4] = biological target: SARS-CoV-2 NSP3 2019-2038
SARS-CoV E 1-16 = biological target: SARS-CoV E 1-16

Sequence of NTF2 domain of G3BP1 (Q13283 11-133): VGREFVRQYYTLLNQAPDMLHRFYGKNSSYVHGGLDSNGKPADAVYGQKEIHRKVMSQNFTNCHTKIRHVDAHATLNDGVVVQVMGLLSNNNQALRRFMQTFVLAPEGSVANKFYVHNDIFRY

B1: clathrin coat adaptor protein AP2M1, tag removed (domain or fragment)
chain: RNELFLDVLESVNLLMSPQGQVLSAHVSGRVVMKSYLSGMPECKFGMNDKIVIEKQGKGTADETSKSGKQSIAIDDCTFHQCVRLSKFDSERSISFIPPDGEFELMRYRTTKDIILPFRVIPLVREVGRTKLEVKVVIKSNFKPSLLAQKIEVRIPTPLNTSGVQVICMKGKAKYKASENAIVWKIKRMAGMKESQISAEIELLPTNDKKKWARPPISMNFEVPFAPSGLKVRYLKVFEPKLNYSDHDVIKWVRYIGRSGIYETR
B1 was tested. Which Kd [1] did it give?
Its Kd is 1.6 µM.

And the Kd [2]?
The Kd was 3 µM.

And the Kd [3]?
Its Kd is 1.6 µM.

Which Kd (NTF2 domain of G3BP2) does the source give for APRITFGGPSDSTGSN [SARS-CoV-2 N peptide with the ΦxFG motif, synthetic] here?
Its Kd is 2.8 µM.

With APRITFGGPTDSTDNN [SARS-CoV N peptide with the ΦxFG motif, synthetic] as the binder, how does the Kd (NTF2 domain of G3BP2) read?
The Kd was 1.7 µM.

And the Kd (NTF2 domain of G3BP1)?
The Kd was 2.8 µM.

Which Kd (NTF2 domain of G3BP2) does the source give for APRAVSFADNNDITNT [MERS-CoV N peptide corresponding to the ΦxFG peptide, synthetic] here?
The Kd was 26 µM.

And the Kd (NTF2 domain of G3BP1)?
Its Kd is 51 µM.

B2: FERM domain of Radixin (domain or fragment)
chain: INVRVTTMDAELEFAIQPNTTGKQLFDQVVKTVGLREVWFFGLQYVDSKGYSTWLKLNKKVTQQDVKKENPLQFKFRAKFFPEDVSEELIQEITQRLFFLQVKEAILNDEIYCPPETAVLLASYAVQAKYGDYNKEIHKPGYLANDRLLPQRVLEQHKLTKEQWEERIQNWHEEHRGMLREDSMMEYLKIAQDLEMYGVNYFEIKNKKGTELWLGVDALGLNIYEHDDKLTPKIGFPWSEIRNISFNDKKFVIKPIDKKAPDFVFYAPRLRINKRILALCMGNHELYMRRR
What does the source list for B2?
Kd (SARS-CoV NSP3 2019-2038): 217 µM; Kd (SARS-CoV-2 E 1-16): 11.9 µM; Kd [4]: 38 µM; Kd (SARS-CoV E 1-16): 11.9 µM
